Reference: article PMC6594998

How the values were obtained:
[1] = molecular target: AcrIIC2Nme (purified, pHAT4 construct with N-terminal 6-His tag) (not stated (suffix Nme; its cognate Cas9 is from N. meningitidis)); assay: crystal structure; AcrIIC2Nme alone; Se-SAD; 2.5 Å
[2] = molecular target: Nme1Cas9 (purified, full length) (N. meningitidis); assay: ITC; 100 μM AcrIIC2Nme titrated into 10 μM Nme1Cas9; 20 °C; 300 mM NaCl, 20 mM Tris pH 7.5; One Set of Sites model
[3] = molecular target: AcrIIC2Nme (purified, pET28a-Sumo construct) (not stated (suffix Nme; its cognate Cas9 is from N. meningitidis)); assay: crystal structure; Nme1Cas9 and AcrIIC2Nme mixed 1:10, complex purified by gel filtration; hanging drop, 16 °C; Nme1Cas9 digested during crystallization; 2.6 Å
[4] = molecular target: Nme1Cas9 (purified, full length) (N. meningitidis)

**Q.** With “AcrIIC2Nme (purified, pHAT4 construct with N-terminal 6-His tag) (natural protein)” as the substance, how does the stoichiometry N [1] read?
**A.** Its stoichiometry N is 2.

**Q.** How did the Kd [2] turn out when “AcrIIC2Nme (purified, pET28a-Sumo construct) (natural protein)” was run?
**A.** The Kd was 0.2 µM.

**Q.** And the stoichiometry N [3]?
**A.** The stoichiometry N was 2.

**Q.** What about the in vitro DNA cleavage by Nme1Cas9; sgRNA and AcrIIC2Nme added simultaneously; excess of AcrIIC2Nme needed to block cleavage [4] of the same substance?
**A.** The in vitro DNA cleavage by Nme1Cas9; sgRNA and AcrIIC2Nme added simultaneously; excess of AcrIIC2Nme needed to block cleavage was > 10 fold excess.
